Consider two molecules from patent US20140348747A1 (PROMEGA, published 2014).

The target of assay [1] is T1, NLpoly 11S (12-A51T).
T1 construct: E. coli clarified lysate; also called 12S-51
T1 chain: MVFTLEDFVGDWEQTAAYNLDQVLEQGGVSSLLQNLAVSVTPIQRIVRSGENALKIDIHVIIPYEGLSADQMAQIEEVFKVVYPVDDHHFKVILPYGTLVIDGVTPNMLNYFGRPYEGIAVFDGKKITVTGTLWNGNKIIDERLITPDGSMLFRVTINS
Nature of the assay: luminescence complementation titration; one site-specific binding fit.

The target of assay [2] is T1, NLpoly 11S (12-A51T). Kind of assay: luminescence complementation titration of synthetic NLpep on NLpoly E. coli lysate; one site-specific binding fit.

As usually defined, the Kd is the concentration at which binding is half-saturated.

Where only a bound is given, the exact number is not on record here.

As for Ac-VSGWRLFKKISN-NH2 (synthetic peptide) [NLpep80], the “fold improved affinity over NLpolyWT:NLpepWT” value with NLpoly 11S (12-A51T) [1] came out at 10000 fold. The molecule further showed a Kd with NLpoly 11S (12-A51T) [2] of less than 1 nM.

Take Ac-VSGWRLFKKIS-NH2 (synthetic peptide) [NLpep86]: the “fold improved affinity over NLpolyWT:NLpepWT” value in the assay with NLpoly 11S (12-A51T) [1] was 10000 fold. Also, the Kd with NLpoly 11S (12-A51T) [2] is less than 1 nM.
